According to PMC9997659, “TLN1 contains a cancer-associated cassette exon that alters talin-1 mechanosensitivity” (The Journal of Cell Biology, 2023):
Values joined by “and” are separate entries in the source; they are usually repeats but may differ in a detail not shown here. Equal entries are not always repeated.

Experiments:
[1] = molecular target: Human talin-1 R1R2-17b (residues 482-786 + additional 17 residues of exon 17b) (human) (UniProt Q9Y490); test: SEC; analytical gel filtration, Superdex 200 Increase 10/300 GL, run at room temperature; VD1 preincubated with talin R1R2 at a 3:1 ratio for 1 h at 37°C; 100 µl, 100-400 µM protein
[2] = molecular target: T1, Human talin-1 R1R2-WT (residues 482-786) (human, UniProt Q9Y490 482-786); test: NMR titration; 1H,15N TROSY spectra of 100 µM R1R2 alone and with 300 µM RIAM peptide; 50 mM NaCl, 15 mM NaH2PO4, 6 mM Na2HPO4, 2 mM DTT, pH 6.5, 298K; details: both partners purified
T1 construct: talin-1 (TLN1), human, rod domains R1 and R2, residues 482-786 of the 2,541 amino acid protein; codon optimized synthetic gene in pET151; also called wild-type R1R2; talin R1R2-WT; source: E. coli BL21(DE3)*, purified (Nickel-NTA, TEV cleavage, HiTrap Q)
T1 sequence (Q9Y490 482-786): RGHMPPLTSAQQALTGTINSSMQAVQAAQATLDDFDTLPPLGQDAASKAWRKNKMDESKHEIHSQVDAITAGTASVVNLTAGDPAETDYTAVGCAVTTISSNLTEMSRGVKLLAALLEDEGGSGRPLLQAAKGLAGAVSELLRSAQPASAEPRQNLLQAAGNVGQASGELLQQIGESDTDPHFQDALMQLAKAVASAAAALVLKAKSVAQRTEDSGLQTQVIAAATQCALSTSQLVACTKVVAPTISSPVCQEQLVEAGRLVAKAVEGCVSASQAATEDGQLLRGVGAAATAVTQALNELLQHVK

Row | Molecule | stoichiometry N (vinculin per talin) [1] | binding result [2]
1 | Vinculin domain 1 (VD1) (from UniProt P18206 1-258) (domain or fragment) | 2 and 3 | 
2 | SEDIDQMFSTLLGEMDLLTQSLGVDTC (RIAM (Rap1-effector), residues 4-30 as printed; source: synthetic peptide (GLBiochem)) [RIAM peptide (residues 4-30)] |  | binds
